Test results reported in publication PMC6358683.

Key:
[1] = biological target: HA of A/New Caledonia/20/1999 (influenza A virus A/New Caledonia/20/1999) (UniProt Q6WG00)
[2] = biological target: HA of A/Puerto Rico/8/1934 (influenza A virus A/Puerto Rico/8/1934) (UniProt P03452)
C05 V110P (human) = assay: BLI

Substance | HAI, antibody concentration at the endpoint titer; virus A/New Caledonia/20/1999 [1] [µg/mL] | HAI, antibody concentration at the endpoint titer; virus A/Puerto Rico/8/1934 [2] [µg/mL] | Kd (C05 V110P (human)) [nM]
C05 V110P (antibody) | 0.2 | – | –
C05 V110P-A117E (antibody) | 0.2 | > 100 | –
HA of A/Puerto Rico/8/1934 (from UniProt P03452) (natural protein) | – | – | 2300
